Measured values reported in paper PMC2886305 (Molecular cell, 2010).
Where no end group is shown, it is not given here.

Key:
[1] = tested on: CBX7 at INK4b/ARF/INK4a locus, PC3 cells; test: ChIP of CBX7 occupation in PC3 cells treated with α-amanitin; type: cell-based, human; conditions: whole PC3 cell treatment, 10 μg/ml, relative to histone H3
[2] = tested on: RNA Pol II (ANRIL transcription), PC3 nuclei; test: In vitro transcription of ANRIL from PC3 whole nuclei; type: cell-based, human; conditions: [α-32P]-UTP incorporation
[3] = tested on: CBX7 chromodomain (CBX7CD); test: fluorescence anisotropy; conditions: not given in material (buffer, salt, pH and temperature in supplement)
[4] = target: H3K9me3 peptide of the fluorescence anisotropy assay; test: fluorescence polarisation
CBX7CD = target: T1, CBX7CD (Mus musculus, UniProt Q8VDS3); type: binding; conditions: fluorescence anisotropy, fluorescein-labeled peptide; measured in triplicate
T1 sequence (Q8VDS3 11-69 limits assumed): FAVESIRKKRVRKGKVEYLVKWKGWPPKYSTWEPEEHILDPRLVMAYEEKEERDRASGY

CBX7 chromodomain = target: T2, CBX7 chromodomain ( (human or mouse cDNA cloned), UniProt Q8VDS3 1-71); test: fluorescence polarisation
T2 sequence: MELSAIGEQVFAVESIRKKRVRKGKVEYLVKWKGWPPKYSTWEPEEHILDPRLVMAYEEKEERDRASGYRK

[5] = tested on: INK4b/ARF/INK4a locus, PC3 cell nuclei; test: Quantitative ChIP of PC3 nuclei after RNase A; type: cell-based, human
[6] = RNase A treatment of PC3 cell nuclei

α-amanitin was tested, and the “CBX7 levels (ChIP)” value [1] was “depleted levels of CBX7” and the “sensitivity of nascent ANRIL transcription” value [2] was “shows sensitivity to α-amanitin”.

Work on ANRIL loop A RNA yielded a Kd [3] of 13.7 µM.

In the case of “CBX7 chromodomain (from UniProt Q8VDS3 1-71) (domain or fragment)”, the Kd [4] is reported as 16.5 µM.

Molecule ANRIL loop C RNA has a Kd [3] of 14.6 µM.

“H3K9me3: H3K9me3 peptide (histone H3 methylated at lysine 9)” showed a Kd (CBX7CD) of 16.5 ± 0.8 µM.

ANRIL loop B RNA was tested, and the Kd [3] was 30.2 µM.

APRKQLATKAARK(Me3)SAP (also: fluorescein label (position not given here)) [fluorescein-labeled H3K27me3 peptide] showed a Kd (CBX7 chromodomain) of 59 ± 4.7 µM.

B1: RNase A: ribonuclease A (protein, UniProt P61823 27-150, looked up)
Ribonuclease pancreatic: KETAAAKFERQHMDSSTSAASSSNYCNQMMKSRNLTKDRCKPVNTFVHESLADVQAVCSQKNVACKNGQTNCYQSYSTMSITDCRETGSSKYPNCAYKTTQANKHIIVACEGNPYVPVHFDASV
In the case of B1, the “site occupation by CBX7, PHC2, Bmi1 and Suz12” value [5, 6] is reported as “dramatically reduced”, the “total levels of H1 and H3” value [5, 6] is reported as “remained about the same” and the “levels of trimethylated H3K27 and ubiquitinated H2AK119” value ([5]; RNase A treatment, at CBX7 occupation sites) is reported as “greatly reduced”.
